Assay results as given in US20240132578A1.

Legend:
Test in all cases: cell-based or functional assay
[1] = molecular target: HIV-1 Env of pseudovirus Du172 (HIV-1)
[2] = molecular target: HIV-1 Env of pseudovirus PVO.4 (HIV-1)
[3] = molecular target: HIV-1 Env of pseudovirus DU156 (HIV-1)
[4] = molecular target: HIV-1 Env of pseudovirus CAP45 (HIV-1)
[5] = molecular target: HIV-1 Env of pseudovirus REJ04541 (HIV-1)
[6] = molecular target: HIV-1 Env of isolate NL43 (clade B) (HIV-1)
[7] = molecular target: HIV-1 MGRM-C-027 Env (HIV-1 isolate MGRM-C-027 (clade C))
[8] = molecular target: HIV-1 MGRM-C-026 Env (HIV-1 isolate MGRM-C-026 (clade C))
[9] = molecular target: HIV-1 93IN905 Env (HIV-1 isolate 93IN905 (clade C))
[10] = molecular target: HIV-1 92RW020 Env (HIV-1 isolate 92RW020 (clade A))
[11] = molecular target: HIV-1 APV13 envelope glycoprotein (Env), clade B pseudovirus (HIV-1)
[12] = molecular target: HIV-1 MGRM-D-001 envelope glycoprotein (Env) on virus (HIV-1, clade D, isolate MGRM-D-001)
[13] = molecular target: HIV-1 MGRM-C-026 envelope glycoprotein (Env) on virus (HIV-1, clade C, isolate MGRM-C-026)
[14] = molecular target: HIV-1 MGRM-C-028 envelope glycoprotein (Env) on virus (HIV-1, clade C, isolate MGRM-C-028)
[15] = molecular target: HIV-1 MGRM-D-018 envelope glycoprotein (Env) on virus (HIV-1, clade D, isolate MGRM-D-018)
[16] = molecular target: HIV-1 CMU02 envelope glycoprotein (Env) on virus (HIV-1, clade AE, isolate CMU02)
[17] = molecular target: HIV-1 94UG103 Env (pseudovirus) (HIV-1)
[18] = molecular target: HIV-1 JR-CSF Env S306A (HIV-1 (isolate JR-CSF, clade B)) (UniProt P20871)
[19] = molecular target: HIV-1 APV17 Env (pseudovirus) (HIV-1)
[20] = molecular target: HIV-1 envelope glycoprotein (Env) of isolate CMU02 (HIV-1)
[21] = molecular target: HIV-1 envelope glycoprotein (Env) of isolate JRFL (HIV-1)
[22] = molecular target: HIV-1 envelope glycoprotein (Env) of isolate MGRM-A-010 (HIV-1)
[23] = molecular target: HIV-1 envelope glycoprotein (Env) of isolate 92BR020 (HIV-1)
[24] = molecular target: HIV-1 JR-CSF Env R304A (HIV-1 (isolate JR-CSF, clade B)) (UniProt P20871)
[25] = molecular target: HIV-1 MGRM-A-010 envelope glycoprotein (Env) (HIV-1)
[26] = molecular target: HIV-1 MGRM-AG-005 envelope glycoprotein (Env) (HIV-1)
[27] = molecular target: HIV-1 MGRM-C-026 envelope glycoprotein (Env) (HIV-1)
[28] = molecular target: HIV-1 Env of isolate MGRM-F1-008 (subtype F) (HIV-1)
[29] = molecular target: HIV-1 envelope glycoprotein (Env) of isolate MG RM-A-006 (HIV-1)
[30] = molecular target: HIV-1 Env of isolate MG RM-C-020 (HIV-1)
[31] = molecular target: HIV-1 Env of isolate MGRM-Chronic-B-001 (subtype B), on pseudovirus (HIV-1)
[32] = molecular target: HIV-1 Env of isolate MGRM-Chronic-B-003 (subtype B), on pseudovirus (HIV-1)
[33] = molecular target: HIV-1 Env of isolate MGRM-F1-014 (subtype F) (HIV-1)

Chain of 5329_C19 (PGT-136) (antibody) (VH): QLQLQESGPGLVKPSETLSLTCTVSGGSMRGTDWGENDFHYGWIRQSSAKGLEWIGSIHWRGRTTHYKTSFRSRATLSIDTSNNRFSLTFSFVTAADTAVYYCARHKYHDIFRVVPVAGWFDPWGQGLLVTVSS
Chain of 5329_C19 (PGT-136) (antibody) (VL): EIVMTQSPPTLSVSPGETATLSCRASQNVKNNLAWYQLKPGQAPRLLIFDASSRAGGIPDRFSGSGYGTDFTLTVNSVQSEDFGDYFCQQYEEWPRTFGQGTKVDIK
Chain of 1443_C16 (PG16) (TCN-116) (antibody) (VH): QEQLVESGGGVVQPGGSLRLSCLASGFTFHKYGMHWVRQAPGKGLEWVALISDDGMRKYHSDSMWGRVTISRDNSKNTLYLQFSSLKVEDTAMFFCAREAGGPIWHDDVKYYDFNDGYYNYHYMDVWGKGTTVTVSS
Chain of 1443_C16 (PG16) (TCN-116) (antibody) (VL): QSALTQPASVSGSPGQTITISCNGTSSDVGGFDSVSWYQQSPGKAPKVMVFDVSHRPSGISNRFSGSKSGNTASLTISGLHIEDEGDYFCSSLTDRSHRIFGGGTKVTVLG

With 1443_C16 (PG16) (TCN-116) (antibody) as the substance, how does the IC50, pseudovirus neutralization (TZM-bl assay) [1] read?
Its IC50, pseudovirus neutralization (TZM-bl assay) is < 0.01 µg/mL.

And the IC50, pseudovirus neutralization (TZM-bl assay) [2]?
Its IC50, pseudovirus neutralization (TZM-bl assay) is 12.3 µg/mL.

And the IC50, pseudovirus neutralization (TZM-bl assay) [3]?
The IC50, pseudovirus neutralization (TZM-bl assay) was < 0.01 µg/mL.

What about the IC50, pseudovirus neutralization (TZM-bl assay) [4] of the same substance?
The IC50, pseudovirus neutralization (TZM-bl assay) was < 0.01 µg/mL.

And the IC50, pseudovirus neutralization (TZM-bl assay) [5]?
Its IC50, pseudovirus neutralization (TZM-bl assay) is < 0.01 µg/mL.

With 1496_C09 (PG9) (TCN-109) (antibody) as the substance, how does the neutralization IC50 [6] read?
Its neutralization IC50 is 0.687 µg/mL.

Which Neutralization IC80 [7] does the source give for 4838_L06 (PGT-121) (antibody) here?
Its Neutralization IC80 is 0.0829 µg/mL.

What about the Neutralization IC90 [7] of the same substance?
Its Neutralization IC90 is 0.374 µg/mL.

And the Neutralization IC95 [7]?
Its Neutralization IC95 is 3.14 µg/mL.

What about the Neutralization IC95 [8] of the same substance?
The Neutralization IC95 was 0.0687 µg/mL.

What about the Neutralization IC80 [9] of the same substance?
Its Neutralization IC80 is 0.0302 µg/mL.

What about the Neutralization IC90 [9] of the same substance?
The Neutralization IC90 was 0.0645 µg/mL.

What about the Neutralization IC80 [10] of the same substance?
The Neutralization IC80 was 0.0188 µg/mL.

What about the Neutralization IC90 [10] of the same substance?
The Neutralization IC90 was 0.0361 µg/mL.

What about the Neutralization IC95 [10] of the same substance?
Its Neutralization IC95 is 0.0671 µg/mL.

How did the IC50, pseudovirus neutralization [11] turn out when 4858_P08 (PGT-123) (antibody) was run?
The IC50, pseudovirus neutralization was 0.222 µg/mL.

What about the IC80 (pseudovirus neutralization) [11] of the same substance?
The IC80 (pseudovirus neutralization) was 0.879 µg/mL.

And the IC90 (pseudovirus neutralization) [11]?
The IC90 (pseudovirus neutralization) was 1.87 µg/mL.

What about the IC95 (pseudovirus neutralization) [11] of the same substance?
Its IC95 (pseudovirus neutralization) is 3.5 µg/mL.

With 4877_D15 (PGT-122) (antibody) as the substance, how does the Neutralization IC80 [12] read?
The Neutralization IC80 was 4.48 µg/mL.

And the Neutralization IC90 [12]?
The Neutralization IC90 was > 10 µg/mL.

And the Neutralization IC95 [12]?
Its Neutralization IC95 is > 10 µg/mL.

And the neutralization IC50 [12]?
The neutralization IC50 was 0.867 µg/mL.

And the Neutralization IC80 [13]?
Its Neutralization IC80 is 0.037 µg/mL.

And the Neutralization IC90 [13]?
Its Neutralization IC90 is 0.0849 µg/mL.

What about the Neutralization IC95 [13] of the same substance?
The Neutralization IC95 was 0.181 µg/mL.

What about the neutralization IC50 [13] of the same substance?
Its neutralization IC50 is 0.0089 µg/mL.

What about the Neutralization IC80 [14] of the same substance?
The Neutralization IC80 was > 10 µg/mL.

What about the Neutralization IC90 [14] of the same substance?
Its Neutralization IC90 is > 10 µg/mL.

And the Neutralization IC95 [14]?
Its Neutralization IC95 is > 10 µg/mL.

And the neutralization IC50 [14]?
The neutralization IC50 was 2.06 µg/mL.

And the Neutralization IC80 [15]?
Its Neutralization IC80 is 0.035 µg/mL.

And the Neutralization IC90 [15]?
Its Neutralization IC90 is 0.0674 µg/mL.

And the Neutralization IC95 [15]?
Its Neutralization IC95 is 0.125 µg/mL.

What about the neutralization IC50 [15] of the same substance?
The neutralization IC50 was 0.0115 µg/mL.

And the Neutralization IC80 [16]?
The Neutralization IC80 was > 10 µg/mL.

And the Neutralization IC90 [16]?
Its Neutralization IC90 is > 10 µg/mL.

And the Neutralization IC95 [16]?
Its Neutralization IC95 is > 10 µg/mL.

What about the neutralization IC50 [16] of the same substance?
The neutralization IC50 was > 10 µg/mL.

For 5123_A06 (PGT-125) (antibody), which Neutralization by PGT-125, IC50 [17] is on record?
Its Neutralization by PGT-125, IC50 is 0.0124 µg/mL.

What about the Neutralization by PGT-125, IC80 [17] of the same substance?
The Neutralization by PGT-125, IC80 was 0.0373 µg/mL.

And the Neutralization by PGT-125, IC90 [17]?
Its Neutralization by PGT-125, IC90 is 0.071 µg/mL.

And the Neutralization by PGT-125, IC95 [17]?
Its Neutralization by PGT-125, IC95 is 0.129 µg/mL.

And the Fold IC50 increase relative to wild-type [18]?
Its Fold IC50 increase relative to wild-type is 1.2 fold.

What about the Neutralization by PGT-125, IC50 [19] of the same substance?
The Neutralization by PGT-125, IC50 was 7.31 µg/mL.

What about the Neutralization by PGT-125, IC80 [19] of the same substance?
The Neutralization by PGT-125, IC80 was > 10 µg/mL.

What about the Neutralization by PGT-125, IC90 [19] of the same substance?
The Neutralization by PGT-125, IC90 was > 10 µg/mL.

And the Neutralization by PGT-125, IC95 [19]?
Its Neutralization by PGT-125, IC95 is > 10 µg/mL.

How did the Neutralization IC80 [20] turn out when 5141_B17 (PGT-126) (antibody) was run?
Its Neutralization IC80 is > 10 µg/mL.

And the Neutralization IC90 [20]?
Its Neutralization IC90 is > 10 µg/mL.

What about the Neutralization IC95 [20] of the same substance?
The Neutralization IC95 was > 10 µg/mL.

What about the neutralization IC50 [20] of the same substance?
The neutralization IC50 was > 10 µg/mL.

What about the Neutralization IC80 [21] of the same substance?
The Neutralization IC80 was 0.0454 µg/mL.

And the Neutralization IC90 [21]?
The Neutralization IC90 was 0.09 µg/mL.

And the Neutralization IC95 [21]?
Its Neutralization IC95 is 0.169 µg/mL.

And the neutralization IC50 [21]?
The neutralization IC50 was 0.014 µg/mL.

What about the Neutralization IC80 [22] of the same substance?
Its Neutralization IC80 is 0.0137 µg/mL.

And the Neutralization IC90 [22]?
Its Neutralization IC90 is 0.0316 µg/mL.

And the Neutralization IC95 [22]?
The Neutralization IC95 was 0.0687 µg/mL.

What about the neutralization IC50 [22] of the same substance?
The neutralization IC50 was 0.0033 µg/mL.

What about the Neutralization IC80 [23] of the same substance?
The Neutralization IC80 was 0.0457 µg/mL.

And the Neutralization IC90 [23]?
The Neutralization IC90 was 0.0846 µg/mL.

And the Neutralization IC95 [23]?
Its Neutralization IC95 is 0.152 µg/mL.

What about the neutralization IC50 [23] of the same substance?
The neutralization IC50 was 0.0163 µg/mL.

Which Fold IC50 increase relative to wild-type [24] does the source give for 5145_B14 (PGT-127) (antibody) here?
The Fold IC50 increase relative to wild-type was 0.4 fold.

For 5329_C19 (PGT-136) (antibody), which Neutralization IC80 [25] is on record?
Its Neutralization IC80 is > 10 µg/mL.

And the Neutralization IC90 [25]?
Its Neutralization IC90 is > 10 µg/mL.

What about the Neutralization IC95 [25] of the same substance?
Its Neutralization IC95 is > 10 µg/mL.

And the neutralization IC50 [25]?
Its neutralization IC50 is > 10 µg/mL.

What about the Neutralization IC80 [26] of the same substance?
Its Neutralization IC80 is > 10 µg/mL.

What about the Neutralization IC90 [26] of the same substance?
Its Neutralization IC90 is > 10 µg/mL.

What about the Neutralization IC95 [26] of the same substance?
Its Neutralization IC95 is > 10 µg/mL.

And the neutralization IC50 [26]?
The neutralization IC50 was > 10 µg/mL.

And the Neutralization IC80 [27]?
The Neutralization IC80 was 0.0285 µg/mL.

And the Neutralization IC90 [27]?
The Neutralization IC90 was 0.0687 µg/mL.

And the Neutralization IC95 [27]?
The Neutralization IC95 was 0.159 µg/mL.

What about the neutralization IC50 [27] of the same substance?
The neutralization IC50 was 0.0065 µg/mL.

What does the source list for PGV04 (antibody)?
IC50 (µg/mL), pseudovirus neutralization [28]: 1.03 µg/mL; IC50 [29]: 0.244 µg/mL; IC50 (µg/mL), pseudovirus neutralization [30]: 0.112 µg/mL; IC50, single-round pseudovirus neutralization [31]: 0.048 µg/mL; IC50, single-round pseudovirus neutralization [32]: 0.258 µg/mL; IC50 (µg/mL), pseudovirus neutralization [33]: 0.02 µg/mL
